The values below come from PMC5951767.

Data set [1] concerns the target RelA (p65), subunit of RelA-p50 heterodimer;p50, subunit of RelA-p50 heterodimer (mouse (murine);mouse (murine), UniProt Q04207;P25799 19-321;39-350, |). In words: stopped-flow fluorescence.
The next data set concerns the target RelA (p65) homodimer (UniProt Q04207 19-321). In words: stopped-flow fluorescence.

RelA (p65), subunit of RelA-p50 heterodimer;p50, subunit of RelA-p50 heterodimer, sequence (Q04207 19-321, chain 1 of 2): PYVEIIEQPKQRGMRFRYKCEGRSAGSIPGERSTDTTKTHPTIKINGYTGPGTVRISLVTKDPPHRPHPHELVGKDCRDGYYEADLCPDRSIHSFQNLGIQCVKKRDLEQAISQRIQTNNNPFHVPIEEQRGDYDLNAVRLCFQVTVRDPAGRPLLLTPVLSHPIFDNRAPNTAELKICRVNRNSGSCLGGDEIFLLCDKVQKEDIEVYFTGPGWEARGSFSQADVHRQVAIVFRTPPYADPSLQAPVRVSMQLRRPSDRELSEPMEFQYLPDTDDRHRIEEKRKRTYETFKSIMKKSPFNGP
RelA (p65), subunit of RelA-p50 heterodimer;p50, subunit of RelA-p50 heterodimer, sequence (P25799 39-350, chain 2 of 2): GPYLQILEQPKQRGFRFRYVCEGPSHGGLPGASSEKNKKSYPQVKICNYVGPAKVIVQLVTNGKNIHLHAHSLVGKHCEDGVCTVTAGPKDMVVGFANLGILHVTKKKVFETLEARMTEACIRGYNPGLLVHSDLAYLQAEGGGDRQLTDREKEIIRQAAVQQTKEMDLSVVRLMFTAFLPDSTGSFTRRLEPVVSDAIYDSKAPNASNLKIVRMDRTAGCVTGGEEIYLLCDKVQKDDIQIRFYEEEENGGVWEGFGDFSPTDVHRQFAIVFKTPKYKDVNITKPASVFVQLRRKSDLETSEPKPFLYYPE
RelA (p65) homodimer, sequence (Q04207 19-321): as the sequence (Q04207 19-321, chain 1 of 2) above

In the case of GGGAAATTCCTCCCCCAGGAATTTCCC (structured_DNA, 5' AmMC6 amino linker) [IFN-kB hairpin], the binding result (in data set [1]; with RelA (p65) homodimer) was “binds” each time.
